In the DeepSol protein solubility set:

Experiment: soluble on expression in E. coli; label from the status in PepcDB or PDB records

| Sequence | soluble on expression in E. coli |
| --- | --- |
| MSEPTYFMPPEWAPHASTWLSWPHKLESWPGKFEPVPAVFAELAYQLSRSETVNINVLDDAMEAQARELLKERDPEGKYAERIVFHRIPTNDAWCRDHGPNYVIRTQDGRRDKVIMNWEYNAWGGKYEPYDDDNAVPERVAKAQGLPMVSTGMVLEGGAIDVNGAGLLLTTTACLLNPNRNPSLGKAEIEAQLRRYLGIEKVLWLGDGIAGDDTDGHVDDMARFVNENTVVIAVEEDPEDENYKPLRENYELLKTMTGLDGKPLNIVKLPMPEPVYYDGERLPASYANFYIANTVVLVPTYRCPRDQQAIDILQQCFPKREVVGIDCSDLIWGLGAIHCVTHEEPAMLEHHHHHH | soluble |
| MSEQITFATSDFASNPEPRCPCILLLDVSGSMSGRPINELNTGLVTFRDELLADSLALKRVELGIVTFGPVHVEQPFTSAANFFPPILFAQGDTPMGAAITKALDMVEERKREYRANGISYYRPWIFLITDGAPIDEWQAAANKVFRGEEDKRFAFFSIGVQGADMKTLAQISVRQPLPLQGLQFRELFSWLSSSLRSVSRSTPGTEVVLEAPKGWTSV | not soluble |
| MSEQLVTPENVTTKDGKINLLDLNRQQMREFFKDLGEKPFRADQVMKWMYHYCDNFDEMTDINKVLRGKLKEVAEIRAPEVVEEQRSSDGTIKWAIAVGDQRVETVYIPEDDRATLCVSSQVGCALECKFCSTAQQGFNRNLRVSEIIGQVWRAAKIVGAAKVTGQRPITNVVMMGMGEPLLNLNNVVPAMEIMLDDFGFGLSKRRVTLSTSGVVPALDKLGDMIDVALAISLHAPNDEIRDEIVPINKKYNIETFLAAVRRYLEKSNANQGRVTIEYVMLDHVNDGTEHAHQLAELLKDTPCKINLIPWNPFPGAPYGRSSNSRIDRFSKVLMSYGFTTIVRKTRGDDIDAACGQLAGDVIDRTKRTLRKRMQGEAIDIKAV | not soluble |
| MSEQTLEYFLNKGTIRRKDAADIEWYHAANSKSKLMEALRGSAQMIEADVLLRGADPEEPIMAHPPAKDSDITLQDWLKEVVKTDKGIKLDFKSLAAVSQSMSLLEEIRDQLKGPVWINADILPGPGGTATPVDPHVFLQEVAQRSENDVLSLGWTTGWTANVDNPGYSWEMVHQMEELCRPLKQPVTFPVRASLLPMSFPQFQWLLEQSDRSEILH | not soluble |
| MSERVSEEPGLDKGDRAEECELDDPELKAIRMRVREMEEEAERLKGLSGQDKSIGVSTRPCMQTTHSKMTAGAYTEGPPQPLSAEEKKEIDKRSVYVGNVDYGSTAQDLEAHFSSCGSINRITILCDKFSGHPKGYAYIEFAERNSVDAAVAMDETVFRGRTIKVLPKRTNMPGISSTDRGGFRGRPRGNRGNYQRGQRPRGRPFRGRGRPGPLNNPY | soluble |
| MSETVKLDVGGTIFKTSRSTLTKFNGFFKTMLESDIGLKIDESGSIFIDRSPKNFDLILNFMRDGDVVLPNCELKLKELLVEAQFYLLDGLIELCNSKIELVEAPKIKLRFIESDEQFLQILAVQQKPMLIIEFCMVGNDMSIPYNFNLYEFMEKYSHQFDIYFRKFFVHYPHKIVNSERLSEDEPSRKWKARIKWKPTENGYYSQFPHNLRINRGGRIIRDATFLERLEKMIGEFDEYLKKQRNR | not soluble |
| MSFFPGNDPVAGDAFACDAIENLIIPRTSDIGGFAVRRALPTRQRRLVGPFIFFDRMGPAILKAGEALDVKPHPHIGLSTVTYLFDGEIKHRDSLGTELVIRPGDINLMTAGRGIVHSERTPENLRGHPLSMSGLQTWLALPDHMEEIAPAFAHTAKEDMPLIDIKGASGRVVIGEFEGLTSPVSAFTDTLYVDLSLEPGVKFPFSADHEERAIYILSGSLDVAGDIFAADQLLVFRPGDDITLQAGSNGCHIMIFGGAALNQRRYIWWNFVSSSKERIEQAKQEWRTGRFDIVPGDEEEFVPLPEG | not soluble |
| MSFKGFKVVMLILLSTQSYASKLASSIVCDSTIENPCIVQDSKTQFSPVIRYREVASIADVYGGNITGINKFHLSGSEQPSEKGWEAIAESISRKMGAETKKVIVLDLRQESHGYLNGRAITLVSAYNWINLGKSNSQSTLDQENWLAGLRSRKIVNGVLTVPQYVAKQYSQGKSMVVSTVKNEEYYVYKKGFDYYRIFISDHRAPLDSEVDALVALIKNNPEDTWYHVHCRGGKGRTTTVFAMFDMLKNADKVSFEEIIARQASIPPFYNLMVTNREIPELTPYYEQRLQFLIHFYEFARQSLMGYSGTWSEWKKLNI | not soluble |
| MSFNPDYESVAKAFIQHYYSKFDVGDGMSRAQGLSDLYDPENSYMTFEGQQAKGRDGILQKFTTLGFTKIQRAITVIDSQPLYDGSIQVMVLGQLKTDEDPINPFSQVFILRPNNQGSYFIGNEIFRLDLHNN | not soluble |
| MSFVECPYHSPAERLVAEADEGGPSAITEILKELDECYERFSRETDGAQKRRMLHCVQRALIRSQELGDEKIQIVSQMVELVENRTRQVDSHVELFEAQQELGDTAGNSGKLEHHHHHH | not soluble |
| MSFVVIIPARFSSTRLPGKPLVDINGKPMIVHVLERARESGAERIIVATDHEDVARAVEAAGGEVCMTRADHQSGTERLAEVVEKCGFSDDTVIVNVQGDEPMIPAVIIRQVAENLAQRQVGMATLAVPIHSAEEAFNPNAVKVVLDAEGYALYFSRATIPWDRDRFAKSLETVGDTCLRHLGIYGYRAGFIRRYVSWQPSPLEHIEMLEQLRVLWYGEKIHVAVAKAVPGTGVDTADDLERVRAEMR | not soluble |
| MSGASSITATEPYRDVQIRPAVAPDVARVAAIDEAATGEAKPRYWQSLFENFSQARAGCRAFLIAELKGEVVGFICGEVRDFEFGAESCGWVFALTVDPAIRVNSIGTQLFEEICQIFTQAGVRKVRTMIEHDNQLVMAFFRSQGLMVGRFIGMEKNLD | soluble |
| MSGKTKRLMVMAGGTGGHVFPGLAVAHHLMAQGWQVRWLGTADRMEASLVPQHGIEIDFIKISGLRGKGLMAQLTAPIRIYRAVRQAQKIMRDYQPNVVLGMGGYVSGPGGLAAWLCGVPVVLHEQNGIAGLTNRWLARIAKKVLQAFPGAFPNADVVGNPVRTDVLALPLPAVRLSGREGPIRVLVIGGSQGARILNQTLPLVAASLGEQITLWHQVGKGALPEVSQAYQQAGQAGHLVVEFIDDMAAAYAWADVVVCRSGALTVSEVAAAGLPAIFVPFQHKDRQQYWNALPLEKAGAAKIIEQPQFTATSVSSLLASWDRATLLSMAERARSVAIPDATERVAAEVVAASKSA | not soluble |
| MSGLIPAHGLSFRVDASTLTGQSSLLRASLGLDDVHLQVSAITEVKSVFVADAFDRGLVTVTADKEIAIWFPPNSATEQELFVRTLSAAMNGDGPIPQPVPHLDFVAVDVETTNSDWGSICQIGAAKVRDGHVVETKEWLCTPPGDLNSFDEANIAIHGITADMVATAPSFAECYDQFADFAGDLPLAAHNAQFDMTAFLRATQAADIRLRTTNFGCSLAAARAAHLPIANHKLPTVSQHLHVELRNHHNACADAEACAGILIALTQRLNTEITDFTSAFNMLGFHTGQLSDARVYPVLKVRGASSTPASPDSAAPAIQTPPAEKPRKATKAARAPWSKVATPETIPDPNPDADPQGRLFGQSVTLSGDFAPYDKGELWAGIANQGGIIGKNVTKKTTILVCGPWDKPTSKQKRAEELRAKGQEIDLWTQEDLFAQLGLNPEDEQPPF | not soluble |
| MSGRYNMNIILGATGQVGSMLVDNLLGKGQPVRAVVRDGLKAQGLKNKGVEVKIADYLDVEALKKAFQGGSSVFLLTPENPESENFINEIQRIMSNYREAVLSSGISKIVGLSSMGAQHKSGTGNLMASYMLEHAFSDLEIEQVFVRPAYYFSNWLGYLELVREYGILPTFFPPELELPMIAPPDVAGFLSDVMTCKTQQERIYEISGPHDYSSSDIAKIFGDVLNKNVTLQQVLPEEWENTLIQAGFSKDGTRNLMLMTKAVIDGKTKNETTNRLRFSTNFKNYLQSVILNMS | not soluble |
| MSGSDDDATQISREDEELAYEIYFWIVRCICEKGVVKISELRKIYQSTVVKDRSVQFRPLPGVLKAVNENLLHWQGWNAVIQDDRLTYVNVNGDAPNEVRASETERTLGLLKNVLMYVFVATKPQSKHPGVAQEDLMSYMEASMSTHSDRKLSLDHMEFLKKLIAPNARSEFIKKGYLAFTKSVNENDEEVFRYEWGPAARQTVDPLALVQTFQQLTGMKPEMLKEQTERANELKAEQVAAVTRGGVLRTRGQ | not soluble |
